Test results as given in paper PMC4459817, “Vasculotide reduces endothelial permeability and tumor cell extravasation in the absence of binding to or agonistic activation of Tie2” (EMBO Molecular Medicine, 2015).
One block for each molecule: values may come before it.

Target: T1, human Tie2-Fc (hTie2-Fc) (Homo sapiens, UniProt Q02763)
T1 construct: Purified human or mouse Tie2-Fc (i.e., Fc-conjugated extracellular domains of Tie2); purchased R&D Systems 313-TI-100
Assay: SPR binding to human Tie2-Fc
Settings: 37°C; for binding to Tie2-Fc: human Tie2-Fc, 0.625–10 nM, pH 7.4, Fig9C
Text: To better understand the difficulties we had in observing Tie2 activation by VT, we sought to characterize the binding affinity and kinetics of VT to Tie2. Purified human or mouse Tie2-Fc (i.e., Fc-conjugated extracellular domains of Tie2) were first coupled to protein A sepharose beads for pull-down experiments (Fig9A and B) or immobilized on a Biacore CM5 sensor chip for surface plasmon resonance (SPR) experiments (Fig9C and Supplementary Fig S3).
Figure 9 Binding of Vasculotide vs. Ang1 variants to the extracellular domain of Tie2 • A–B Pull-down assay. Input ligands—rhAng1 (A) and VT (B)—were incubated with either protein A sepharose beads only, bead-conjugated mouse Tie2-Fc (mTie2), or bead-conjugated human Tie2-Fc (hTie2). […] The ‘unbound’ fraction is 7% of residual/free ligands remaining in the supernatant. • C Quantitative kinetics analysis by SPR. All analytes were run at increasing concentrations of 0.625, 1.25, 2.5, 5, and 10 nM, at 37°C and pH 7.4. […] Source data are available online for this figure. […]
9. Tie2 Receptor-Binding Assays
Vasculotide (VT) was manufactured by Bachem UK Ltd. T7c (CHHHRHSF) was synthesized by Genscript (Piscataway, NJ, USA). PEG-Cys consists of a single cysteine reacted to each of the 4 arms of PEG-maleimide (Sunbright PTE-100MA, NOF Corporation, Tokyo, Japan). BowAng1 (Ang1-Fd-Fc-Fd) was made and provided by Regeneron Pharmaceuticals, Inc. (Tarrytown, NY, USA). COMP-Ang1 was purified in the Kerbel lab from serum-free culture media conditioned by an engineered CHO cell line provided by Dr. Gou Young Koh (KAIST), according to published protocols (Hwang et al, 2008).
Recombinant human Angiopoietin-1 (rhAng1) and Vascular Endothelial Growth Factor ( rhVEGF) were […]
purchased from R&D Systems. […]
(structural/molecular weight control for VT), and 40 μL of supernatant (7% of residual/unbound ligand) – were similarly boiled in SDS sample buffer. Ang1 samples and controls were resolved by 7.5% polyacrylamide gel electrophoresis (PAGE), electroblotted onto PVDF membranes, and probed with an anti-Ang1 antibody (R&D Sytems, AF923; diluted 1:2,000 in TBS supplemented with 7% BSA and 0.1% Tween-20) at 75kDa (reduced monomers). VT samples and controls were resolved by 17% PAGE, blotted onto PVDF membranes, and probed with an anti-PEG antibody (Silver Lake Research, CH2074; diluted 1:4,000 in TBS supplemented with 7% BSA and 0.05% CHAPS*) at higher “apparent” molecular weights than the expected 14 and 10kDa due to their polymeric nature and large hydrodynamic radii (Zheng et al, 2007). *Note: non-ionic, PEO-based, polymer detergents were avoided at these steps as they cross-react with the anti-PEG antibody used for detecting VT.
Surface Plasmon Resonance (SPR) Experiments: The binding of analytes – VT, T7c peptide, PEG-Cys, rhAng1, COMP-Ang1, BowAng1, and rhVEGF – to the extracellular domain of Tie2 were […]
investigated by SPR using a Biacore T200 Instrument (GE Healthcare). For qualitative binding analysis, mTie2-Fc was dissolved in 10mM acetate buffer (pH 4.5) and immobilized at high density onto a CM5 sensor chip using amine coupling chemistry as described by the manufacturer to a response of 11,500RU.
Binding analysis were performed by exposure of immobilized mTie2-Fc to the analytes diluted in HBS-EP (0.01M HEPES pH 7.4, 0.15M NaCl, 3mM EDTA, 0.005% v/v Tween-20), which was supplemented with 1mg/mL carboxymethyl dextran (NSB reducer, GE Healthcare) to reduce non-specific binding to the sensor chip. Analytes were injected at 30μL/min (association time 120s, dissociation time 120s) at 37 °C, and the chip surface was regenerated each cycle by a 60s pulse of 4M MgCl2. To quantitatively determine the kinetic properties of the interaction (KD, kd, ka) and avoid mass transport limitations, mTie2-Fc and hTie2-Fc were immobilized at low density (1,000-1,200RU) onto separate flow cells of the CM5 chip using amine coupling chemistry. Kinetic analyses were performed using a single-cycle kinetic […]

[1] = Biacore T200, single-cycle kinetics, 1:1 model, 0.625–10 nM analyte, pH 7.4 (HBS-EP), Fig9C

T1 sequence (Q02763 23-748 limits assumed): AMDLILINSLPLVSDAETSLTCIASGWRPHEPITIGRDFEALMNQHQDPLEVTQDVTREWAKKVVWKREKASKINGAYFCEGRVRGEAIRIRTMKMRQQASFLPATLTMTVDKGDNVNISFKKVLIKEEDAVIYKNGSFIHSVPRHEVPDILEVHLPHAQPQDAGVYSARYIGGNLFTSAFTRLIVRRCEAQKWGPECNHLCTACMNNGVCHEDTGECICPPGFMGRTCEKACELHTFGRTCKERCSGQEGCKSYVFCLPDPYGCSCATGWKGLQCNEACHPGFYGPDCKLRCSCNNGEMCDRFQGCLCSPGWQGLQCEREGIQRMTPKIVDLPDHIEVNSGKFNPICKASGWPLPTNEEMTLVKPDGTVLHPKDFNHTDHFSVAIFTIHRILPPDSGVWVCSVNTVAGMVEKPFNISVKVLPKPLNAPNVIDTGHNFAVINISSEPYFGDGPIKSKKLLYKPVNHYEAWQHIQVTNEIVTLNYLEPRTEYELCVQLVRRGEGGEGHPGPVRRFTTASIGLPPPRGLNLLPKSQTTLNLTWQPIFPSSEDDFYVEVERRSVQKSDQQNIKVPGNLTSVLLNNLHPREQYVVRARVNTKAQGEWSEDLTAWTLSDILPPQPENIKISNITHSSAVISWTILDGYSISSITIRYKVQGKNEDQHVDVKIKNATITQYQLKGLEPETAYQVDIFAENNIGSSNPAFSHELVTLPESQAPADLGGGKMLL

Molecule: CHHHRHSF [Vasculotide, 4-armed maleimide-functionalized polyethylene glycol (PEG) backbone to link together four cysteine-capped T7 peptides, that is, CHHHRHSF]
binding to Tie2-Fc (listed as VT): no binding to Tie2-Fc was detectable

Off-rate, Kd [1]: 0.00029 s⁻¹
On-rate, Ka [1]: 1.4e+06 M⁻¹ s⁻¹
binding to Tie2-Fc: bound strongly
B1: recombinant human Ang1 (rhAng1) (ligand, UniProt Q15389 16-498, looked up)
chain: HIGCSNQRRSPENSGRRYNRIQHGQCAYTFILPEHDGNCRESTTDQYNTNALQRDAPHVEPDFSSQKLQHLEHVMENYTQWLQKLENYIVENMKSEMAQIQQNAVQNHTATMLEIGTSLLSQTAEQTRKLTDVETQVLNQTSRLEIQLLENSLSTYKLEKQLLQQTNEILKIHEKNSLLEHKILEMEGKHKEELDTLKEEKENLQGLVTRQTYIIQELEKQLNRATTNNSVLQKQQLELMDTVHNLVNLCTKEGVLLKGGKREEEKPFRDCADVYQAGFNKSGIYTIYINNMPEPKKVFCNMDVNGGGWTVIQHREDGSLDFQRGWKEYKMGFGNPSGEYWLGNEFIFAITSQRQYMLRIELMDWEGNRAYSQYDRFHIGNEKQNYRLYLKGHTGTAGKQSSLILHGADFSTKDADNDNCMCKCALMLTGGWWFDACGPSNLNGMFYTAGQNHGKLNGIKWHYFKGPSYSLRSTTMMIRPLDF
notes: angiopoietin-1, human, recombinant; also called angiopoietin-1; source: bought: R&D Systems (named for the Boyden chamber experiments)
